B1: TPR t1 (parent)
chain: GACCAAUCUGCCCUCAGAGCUCGAGAACAUCUUCGGAUGCAGAGGAGGCAGGCUUCGGUGGCGCGAUAGCGCCAACGUCCUCAACCUCCAAUGCAUCCCACCACAUGAUGAUGCCUGAAGAGCCUUGGUUUUUUG

Variants of: B1
Test: polymerase ribozyme fitness, log enrichment relative to wild type (log ratio); higher = more active; in vitro selection for triplet polymerase activity
Procedure, shortened: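 After PCR construction and transcription, each subunit's mutant library from a heterodimeric triplet polymerase ribozyme was annealed with a biotinylated primer, the partner subunit and triplets. Incubation was frozen, at −7 °C, and extended constructs were gel-excised, bound to streptavidin beads and amplified by RT-PCR, in one selection round done in triplicate. Fitness is the logarithm of a genotype's enrichment divided by that of the wild type, from inverse-variance-weighted replicate averages of Illumina-sequenced inputs and outputs. The base of the logarithm is 2, and genotypes needed ≥10 input reads and ≥1 read per output.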

Row | Variant | polymerase ribozyme fitness (log ratio)
1 | GACCAAUCUGCCCUCAGAGCUCGAGAGCAUCUUCGGAUGCAGAGGAGGCAGGCUUCGGUGGCGCGAUAGCACCAACGUCCUCAACCUCCAAUGCAUCCCACCACAUGAUGAUGCCUGAAGAGCCUUGGUUUUUUG [A27G G71A] | -1.68
2 | GACCAAUCUGCUCUCAGAGCUCGAGAACAUCUUCGGAUGCAGAGGAGGCAGGCUUCGGUGGUGCGAUAGCGCCAACGUCCUCAACCUCCAACGCAUCCCACCACAUGAUGAUGCCUGAAGAGCCUUGGUUUUUUG [C12U C62U U92C] | -1.06
3 | GACCAAUCUAUCCUCAGAGCUCGAGAACAUCUUCGGAUGUAGAGGAGGCAGGCUUCGGUGGCGCGAUAGCGCCAACGUCCUCAACCUCCAAUGCAUACCACCACAUGAUGAUGCCUGAAAAGCCUUGGUUUUUUG [G10A C11U C40U C97A G120A] | -4.4
4 | GACCAAUCUGCCCUCAGAGCUCGAGAACAUCUUCGGAUGCAGAGGAGGCAGGCUUCGGUUGCGCGAUAGCGCCAACGGACUCAACCUCCAAUGCAUCCCACCACAUGAUAAUGCCUGAAGAGCCUCGGUUUUUUG [G60U U78G C79A G110A U126C] | -4.68
5 | GACCAAUCUGCCCUCAGAGCUCGAGAACAUCUUCGGAUGCAGGGGAGGCAGGGUUCGGUGGCGCGAUAGCGCCAACGUCCUCAACCUCCAAUGCAUCCCACCACAUGAUGAUGCCUGAAGAGCCUUGGUUUUUUG [A43G C53G] | -2.54
6 | GACCAAUCUGCCCUCAGAGCUAGAGAACAUCUUCGGAUGCAGAGGAGGCAGGCUUCGGUGGCGCGAUAGCGUCAACGUCCUCAACCUCCAAUGCAUCCCACCACAUGAUGAUGCCUGAAGAGCCUUGGUUUUUUG [C22A C72U] | -4.98
7 | GACCAAUCUGCCCUCAGAGCUCGAGAACAUCUUCGGAUGCUGUGGAGGCAGGCUUCGGUGGCGCGAUAGCGCCAACGUCCUCAACCUCCAAUGCAUCCCACCACAUGAUGAUGCCUGAAGAGCCUUGGUUUUUUG [A41U A43U] | -1.37
8 | GACCAAUCUGCCCUCAGAGCUCGAGAACAUCUUCGGAUGCAAAAGAGGCCGGCUUCGGUGGCGCGAUAGCGCCAACGUCCUCAACCUCCAAUGCAUCCCACCACAUGAUGAUGCAUGAAGAGCCUUGGUUUUUUG [G42A G44A A50C C115A] | -4.02
9 | GACCAAUCUGGUCUCAGAGCUCGAGAACAUCUUCGGAUGCAGAGGAGGCAGGUAUCGGUGGCGCGAUAGCGCCAACGUCCUCAACUUCCGAUGCAACCCAUCACAUGAUGAUGCCUGAAGAGCCUUGGUUUUUUG [C11G C12U C53U U54A C86U A90G U96A C101U] | -2.39
10 | GACCAAUCUGCCCUCAGAGCUCGAGAACAUCUUCGGAUGCAGAGGAGGCAGGCUUCGAUGGCGCGAUAGCGCCAACGUCCUCAACCUCCAAUGCAACCCACCACAUGAUGAUGCCUGAAGAGCCUUGGUUUUUUG [G58A U96A] | -0.747
11 | GACCAAUUUGCCCUCAGAGCUCGAGAACAUCUUCGGAUGCAGAGGAUGCAGGCUUCGGUGGCGCGAUAGCGCCAACGUCCUCAACCUCCGAUGCAUCCCACCACAUGAUGAUCCCUGAAGAGCCUUGGUUUUUUG [C8U G47U A90G G113C] | -2.16
12 | GACCAAUCUGCCCUCAGAGCUCGAGAACAUCUUCGGAUGCAGAGGAGGCAGGUUUCGGUGGCGCGAUAGCUCCAACGUCCUCAACCUCUAAUGCAUCCCACCACAUGAUGAUGCUUGAAGAGCCUUGGUUUUUUG [C53U G71U C89U C115U] | -3.54
13 | GACCAAUCUGCCCUCAGAGCUCGAGAACAUCUUCGGAUGCAGAGGAGGCAGGCUUCGGUGGCGCGAUAGCGCCAACGUCCUCAACCUCCAAUGCAUCCCACCACAUGAUGAUGCCUGAAAAGCCAUGGUUUUUUG [G120A U125A] | 1.26
14 | GACCAAUCUGCCCUCAGAGCUCGAGAACAUCUUCGGAUGCAGAGGAGGCAGGCUUCGGUGGCGCGAUAGCGCCAGCGUCCUCAACCUCCCAUGCAUCCCAGCACAUGAUGAUGCCUGAAGAGCCUUGGUUUUUUG [A75G A90C C101G] | -4.09
15 | GACCAAUCUGCCCUCAGAGCUCGAGAACAUCUUCGGAUGCAGAGGAGGCAGGCUUCGGUGGCGCGAUAGCGCCAACGUCCUCAACCUCCAAUGCAUCCCAGCACAUGAUGAUGCCUGAAGAGCCUUGGGUUUUUG [C101G U129G] | -2.29
16 | GACCAAUCUGCCCUCAGAGCUCGAGAACAUCUUCGGAUGCAGAGGAGGCAGGCUUCGGUGGCGCGAUAGCGCCAACGUCCUCAACCUCCAAUGCAUCCCACCACCUGAUAAUGCCUGAAGAGCCUUGGUUUUUUG [A105C G110A] | -5.26
17 | GACCAAUCUGCCCUCAGAGCUCGAGAACAUCUUCGGAUGCAGAGGAGGCGGGCUUCGGUGGCGCGAUAGUGGCAACGUCCUCAACCUCCAAUGCAUCCCACCACAUGAUGAUGCCUGAAGAGCCUUGGUUUUUUG [A50G C70U C72G] | -3.42
18 | GACCAAUCUGCCCUCAGAGCUCGAGAACAUCUUCGGAUGCAGAGGAGGCAGGCUUCGGUGGCGCGAUAGCGCCAACGGCCUCAACCUCUAAUGCAUCCCACCACAUGAUGAUGCCUGAAGAGCCGUGGUUUUUUG [U78G C89U U125G] | -0.754
19 | GACCAAUCUGCGCUCAGAGCCCGAGAACUUCUUCGGAUGCAGAGGAGGCAGGCUUCGGUGACGCGAUAGCGCCAACGUCCUCAACCUCCAAUGCAUCCCACCACAUGAUGAUGCCUGAAGAGUCUUGGUUAUUUG [C12G U21C A29U G61A C123U U131A] | -2.39
20 | GACCAAUCUUCCCUCAGAGCUCGAGAACAUCUUCGGAUGCAGAUGAGGCAGGUUUCGGUGGCGCGAUAGCGCCAACGUCCUCAACCUCCAAUGCAACCCACCACAUGACGAUGCCUGAAGAGCCUUGGUUUUUUG [G10U G44U C53U U96A U109C] | -7.37
21 | GACCAAUCUACCCUCAGAGCUCGAGAACAUCUUCGGAUGCAGAGCAGGCAGGCUUCGGUGGCGCGAUAGCGCCAACGUCCUCAACCUCCAAUGCAUCCCACCACAUGAUGAUGCCUGAAGAGCCUUGGUUUUUUG [G10A G45C] | -0.489

Row | Variant | polymerase ribozyme fitness (log ratio)
22 | GACUAUUCUGCCCUCAGAGCUCGAGAACAUCUUCGGAUGCAGAGGAGGCAGGCUUCGGUGGCGCGAUAGCGCCAACGUCCUCAACCUCCAUUGCAUCCCACCACAUGAUGAUUCCUGAAGAGCCUUGGUUUUUUG [C4U A6U A91U G113U] | -3.89
23 | GACCAAUCUAACCUCAGCGCUCGAGAACAUCUUCGGAUGCACAAGAGGCAGGCUUCGGUGGCGCGAUAGCGCCAACGUCCUCAACCUCCAAUGCAUCCCAACACAUGAUGAUGCCUGAAGAGCCUUGGUUUUUUG [G10A C11A A18C G42C G44A C101A] | -4.26
24 | GACCAAUCUGCCCUCAGAGCUCGAGAACAUCUUCGGAUGCGGAGGAGUCAGGCUUCGGUGGCGCGAUAGCGCCAACGUCCUCAACCUCCAAUGCAUCCCACCACAUGAUGAUGCCUGAAGUGCCUUGGUUUUUUG [A41G G48U A121U] | 1.04
25 | GACCAAUCUGCCCUCAGAGCUCGAGAACAUCUUCGGAUGCAGAGGAGGCAGGCUUCGGUGGCGCGAUAGCGUCAACGUUCUAAACCUCCAAUGCAUCCCACCACAUGAUGAUGCCUGAAGAGCCUUGGUUUUUUG [C72U C79U C82A] | -0.964
26 | GACCAAUCUGCCCUCAGAGUUCGAGAACAUCUUCGGAUGCAGAGGAGGCAGGCUUCGGUGGCGCGAUAGCGUCAACGUCCUCAACCUCCAAUGCAUCCCACCACAUGAUGAUGCCUGAAGAGCCUUGGUUUUUUG [C20U C72U] | -1.9
27 | GACCAAUCUGCCGUCAGAUCUCGAGAACAUCUUCGGAUGCAGAGGAGGCAGGCUUCGGUGUCGCGAUAGCGCUAACGUCCUCAACCUCCAAUGCAUCCCACCACAUGAUGAUUCCUGAAGAGCCUUGGUUUUUUG [C13G G19U G61U C73U G113U] | -5.34
28 | GACCAAUCUGCCCUCAGAGCUCGAGAACAUCUUCGGAUGCAGAGGAGGCAGGCUUCGGUGGCUCGAUAGCGCCAACGUCCUCAACCUCCAAUGCAUCCCACCACAUGAUGAUGCCCGAAGAGCCUUGGAUUUUUG [G63U U116C U129A] | -3.33
29 | GACCAAUCUGCGCUCAGAGCUCGAGAACAUCUUCGGAUGCAGAGGAGGCAGUGUUCGGUUGCGCGAUAGCGCCAACGUCCUCAACCUCCAAUGCAUCCCACCACAUGAUGAUGCCUGAAGAGCCUUGGUUUUUUG [C12G G52U C53G G60U] | -0.409
30 | GACCAACCUGCCCUCAGAGCUCGAGAACAUCUUCGGAUGCAGAGGAGGCAGGCUUCGGUGGCGCGAUAGCGCCAACGUCCUCAACCUCCAAUGCAUCUCACCACAUGAUGAAGCCUGAAGAGCCUUGGUUUUUUG [U7C C98U U112A] | -1.84
31 | GACCAAUCUGCCCUCAGAGCUCGAGAUCAUCUUCGGAUGCAGAGGAGGCAGGCUUCGGUGACGCGAUAGCGCCAACGUCCUCAACCGCCAAUGCAUCCCACCACAUGAUGAUGCCUGAAGAGCCUUGGUUUUUUG [A27U G61A U87G] | -2.42
32 | GACCAAUCUGCCCUCAGAGCUCGAGAACAUCUUCGGAUGCAGAGGAGGCAGGCUUCCGUGGCGCGAUAGCGCCAACGUCCUCAACCUCUAAUGCAUCCCACCACAUGAUGAUGCCUGAACAGCCUUGGUUUUUUG [G57C C89U G120C] | -1.28
33 | GACCAAUCCGCCCUCAGAGCUCGAGAACAUCUUCGGAUGCAGAGGAGGCAGGCUUCGGUGGCGCGAUAUCGCCAACGUCCUCAACCUCCAAUGCAUCCCACCACAUGAUGAUGCCUGAAGAGCCUUGGUUUUUUG [U9C G69U] | 1.23
34 | GACCAAUCUGCCCUCAGAGCUCGAGAACAUCUUCGGAUGUAGAGGAGGCAGGCUUCGGUGGCGCGAUAGCGCCAACGUCCUUAGCCUCCAAUGCAUCCCACCACAUUAUGAUGCCUGAAGAGCCUUGGUUUUUUG [C40U C82U A84G G107U] | -6.74
35 | GACCAAUCUGCCCUAAGAGCUCGAGAACAUCUUCGGAUGCAGAGGAGGCAGGCUUCGGUGGCGCGAUAUCGCCAACGUCCUCAACCUCCAAUGCAUCCCAACACAUGAUGAUGCCUGAAGAGUCUUAGUUUUUUG [C15A G69U C101A C123U G127A] | -4.17
36 | GACCAAUCUGCCCUCAGCGCUCGAGAACAUCUUCGGAUGCAGAGGAGGCAGGCGUCGGUGGCGCGAUAGCGCCAACGUCCUCAACCUCCAAUGCAUCCCACCACAUGAUGAUGCCUGAAGAGGCUUGGUUUUUUG [A18C U54G C123G] | -0.39
37 | GACCAAUCUGCCUUCAGAGCUCGAGAAAAUCUUCGGAUGCAGAGGAUGCAGGCUUCGGUGGCGCGAUAGCGCCAACGUCCUCAACCUCCAAUGCAUCCCACCACAUGAUGAUGCCUGAAGAGCCUUGGUUUUUUG [C13U C28A G47U] | -4.54
38 | GACCAAUCUGCCCUCAGAGCUCGAGAACAUCUUCGGAUUCAGAGGAGGCAGGCUUCGGUGGCGCGAUAACGCCAACGACCUCAACCUCCAAUGCAUCCCACCACAUGAUGAUGCCUGAACAGCCUUGGUUUUCUG [G39U G69A U78A G120C U133C] | -2.17
39 | GACCAAUCUGCCCUCAGAGCUCGAGAACAUCUUCGGAUGCAGAGGAGGCAGGCUUCGGUGGCACGAUAGCGCCAACGUCCUCAACCUCCAAUGCAUCCCACCACAUGAUGAUGCAUGAAGAGCCUUGGUUUUUUG [G63A C115A] | -1.19
40 | GACCAAUCUGCCCUCAGUGCUCGAGAACAUCUUCGGAUGCAGAGGAGGCAGGCUUCGGUGGCGCGUUAGCGCCAACGUCCUCAACCUCCAAUGCAUCCCACCACAUGAUGAUGCCUGAAGAGCCUUGGUUUUUUG [A18U A66U] | -3.87
41 | GACCAAUCUGUCCUCAGAACUCGAGAACAUCUUCGGAUGCAGAGGAGGUAGGCUUUGGUGGCGCGUUAGCGCCAACGUCCUCAACCUCCAAUGCAUCCCACCACAUGAUGAUGUCUGAAGAGCCUUGGUUUUUUG [C11U G19A C49U C56U A66U C114U] | -2.83
42 | GACCAAUCUGCCCUCAGAGCUCGAGAACAUCUUCGGAGGCAGAGGAGGUAGGCUUCGGUGGCGCGAUAGCGCCAACGUCCUCAACCUCCAAUGCAUCCCACCACAUGAUGAUGCCUGAAGAGCCUUGGUUUUUUG [U38G C49U] | -2.12
